System: Del 52 type or Ins 5 type mutant CALR protein
Assay: Verification of recognition of mutant CALR proteins (SDS-PAGE / immunoblot of culture supernatants)
Assay type: binding, human
Conditions: culture supernatants of UT-7/TPO cells expressing FLAG-tagged Del 52 or Ins 5 mutant CALR
Procedure: UT-7/TPO cells expressing a Del 52 type or Ins 5 type mutant CALR having a FLAG-tag inserted downstream of the signal sequence at the N-terminus were cultured, and culture supernatants containing the secreted mutant CALR proteins were prepared by centrifugation (1,600 g×5 mins, 4° C.). The culture supernatants were heat-treated in the presence of SDS and a reducing agent, then resolved on a gel by SDS polyacrylamide electrophoresis, electrically transferred on a polyvinylidene difluoride (PVDF) membrane, and reacted with a TBS-T solution containing 5% skim milk at room temperature for 1 hour, followed by reaction with a 5% BSA/TBS-T solution containing a rat clone B3, C6, or G1 antibody or mouse anti-[…] tag antibody (FUJIFILM Wako Pure Chemical Corporation) at 4° C. overnight. After washing with a TBS-T solution, the reaction products were each reacted with a 5% skim milk/TBS-T solution containing a peroxidase-labeled goat anti-rat IgG antibody (Jackson Immuno Research Inc.) or a peroxidase-labeled goat anti-mouse IgG antibody (Jackson Immuno Research Inc.) at room temperature for 1 hour. After washing with a TBS-T solution, the PVDF membranes were reacted with a peroxidase luminescence reagent. The resulting signals were detected using a FUSION image pickup apparatus.

Molecule	Recognition of full-length and cleaved mutant CALR proteins
B3: rat monoclonal anti-mutant CALR antibody from hybridoma clone B3, VH SEQ ID NO: 6, VL SEQ ID NO: 7 (antibody, listed as Rattus norvegicus, V domains shown) VH: QVQLQQSGAELVKPGSSVKISCKASGYTFTRNFIHWIKQQPGNGLEWIGWIFPGDGDTEYNQKFNGKATLTADKSSSTAYMQLSSLTSEDSAVYFCARGNYNYEYFDYWGQGVMVTVSS VL: DIQMTQSPASLSASLGETVSIECLASEDIYSYLAWYQQKPGKSPQLLIFAANRLQDGVPSRFSGSGSGTQFSLKISGMQPEDEGDYFCLQGSKFPYTFGPGTKLELN	recognize the full-length and cleaved mutant CALR proteins
C6: rat monoclonal anti-mutant CALR antibody from hybridoma clone C6, VH SEQ ID NO: 8, VL SEQ ID NO: 9 (antibody, listed as Rattus norvegicus, V domains shown) VH: QVQLQQSGAELVKPGSSVKISCKASGYTFTSYFVHWIKQQPGDGLEWIGWIYPGDGDTEYNHKFNGKSTLTADRSSSTAYMQLSSLTSEDSAVYFCARGNYYDGREVMDAWGQGASVTVSS VL: DVVLTQTPPTLSATIGQSVSISCRSSQSLLDSDGETYLNWLLQRPGQSPQLLIYSVSNLESGVPNRFSGSGSETDFTLKISGMEAEDLGVYYCMQATHGPYTFGAGTKLELK	recognize the full-length and cleaved mutant CALR proteins
G1: rat monoclonal anti-mutant CALR antibody from hybridoma clone G1, VH SEQ ID NO: 10, VL SEQ ID NO: 11 (antibody, listed as Rattus norvegicus, V domains shown) VH: QVQLQQSGAELVKPGSSVKISCKASGYTFTSYFVHWIKQQPGDGLEWIGWIYPGDGDTEYNQKFNGKATLTADRSSSTAYMQLSSLTSEDSAVYFCARGNYYDGREVMDAWGQGASVTVSS VL: DVVLTQTPPTLSATIGQSVSISCRSSQSLLDSDGETYLNWLLQRPGQCPQLLIYSVSNLESGVPNRFSGSGSETDFTLKISGVEAEDLGVYYCMQGTHGPYTFGAGTKLELK	recognize the full-length and cleaved mutant CALR proteins

From US20250161441A1, “MEDICINE COMPRISING COMBINATION OF ANTI-MUTANT-CALR ANTIBODY AND ANOTHER DRUG” (JUNTENDO EDUCATIONAL FOUNDATION, priority 2022, published 2025)
